Assay results from patent US20110091994A1, “Methods for Screening Compounds for Treating and/or Preventing an Hepatitis C Virus Infection” (priority 2008, published 2011).
Read-outs that look alike come from different tables or passages of the source.

Experiments:
[1] = target: T1, HCV ORFs (Gal4-DB fusions) (Hepatitis C virus genotype 1b, UniProt Q9WMX2); format: binding, HCV genotype 1b, isolate con1; settings: human protein as prey
T1 construct: expressed in transfected cells; host or cells: Saccharomyces cerevisiae MAV203 (IMAP1) / AH109 (IMAP2)
Procedure: (§1) HCV ORFs were transferred from pDONR223 into bait vector (pPC97) to be expressed as Gal4-DB fusions in yeast. Two different screening methods were used (IMAP1 and IMAP2). Both for IMAP1 and IMAP2 strategies and because bait constructs sometimes self-transactivate reporter genes, SD-L-H culture medium were supplemented with 3-aminotriazole (3-AT). Appropriate concentrations of this drug were determined by growing bait strains on SD-L-H medium supplemented with increasing concentrations of 3-AT. […] For IMAP1, bait vectors were introduced in MAV203 yeast strain and both human spleen and foetal brain AD-cDNA libraries (Invitrogen) were screened by transformation as described (7). All primary positive clones (selected on SD-W-L-H+3-AT) were tested by further phenotypic assay using two additional reporter genes: LacZ (X-Gal colorimetric assay) and URA3 (growth assay on 5-FOA supplemented medium). […] AD-cDNA were PCR-amplified and inserts were sequenced to identify interactors. IMAP2 screens were performed by yeast mating, using AH109 and Y187 yeast strains (Clontech (8)). Bait vectors were transformed into AH109 (bait strain) and human spleen and foetal brain AD-cDNA libraries (Invitrogen) were transformed into Y187 (prey strain). Single bait strains were mated with prey strains then diploids were plated on SD-W-L-H+3-AT medium. Positive clones were maintained onto this selective medium for 15 days to eliminate any contaminant AD-cDNA plasmid (9). AD-cDNAs were PCR amplified and inserts were sequenced.
(§2) We have developed a bioinformatic pipeline that assigns each IST to its native human genome transcript. […] Gal4 motif was searched (last 87 bases of GAL4-AD), sequences downstream of this motif were translated into peptides and aligned using BLASTP against the REFSEQ (http://www.ncbi.nlm.nih.gov/RefSeq/) human protein sequence database (release 04/2007). Low-confidence alignments (E value>10^−10, identity <80%) and premature STOP codon containing sequences were eliminated. Only in-frame proteins and high quality sequences were further considered

[2] = test system: HCV ORFs (Gal4-DB fusions); format: binding, HCV genotype 1b, isolate con1; settings: human protein listed by gene symbol; the value names the HCV protein it interacts with
Procedure: as §1, §2

[3] = target: T2, GST-tagged viral proteins (Hepatitis C virus genotype 1b, UniProt Q9WMX2); test: Validation by co-affinity purification (CoAP); format: binding, HCV genotype 1b, isolate con1; set-up: key: +: IMAP validation; −: not validated; NA: non assayable due to default of protein expression or to cellular protein directly interacting with GST
T2 construct: expressed in transfected cells; host or cells: HEK-293T
Excerpt: C. Validation of Y2H interactions by co-affinity purification assay. Nine co-AP positive assays are shown, representing: NS5A-SORBS2 (1), NS3-CALCOCO2 (2), NS5A-BIN1 (3), NS5A-MOBK1B (4), NS5A-EFEMP1 (5), NS3-PSMB9 and NS5A-PSMB9 (6), NS5A-PPPIRI3L (7), NS3-RASAL2 (8). After pull-down with GST tagged viral baits (+) or with negative control GST alone (−), cellular preys are identified with anti-Flag antibody. Anti-GST antibody identifies either GST alone or GST-tagged viral baits. Expression of cellular preys in cell lysate is controlled by anti-Flag (bottom panel). […]
A random pool of 59 IMAP Y2H interactions was chosen for CoAP assays. Cellular ORFs (interacting domains found in Y2H screens) were cloned by recombinational cloning from a pool of human cDNA library or the MGC cDNA plasmids using KOD polymerase (Toyobo) into pDONR207 (Invitrogen). After validation by sequencing, these ORFs were transferred to pCi-neo-3xFLAG gateway-converted, and HCV ORFs were transferred into pDEST27 (GST fusion in N-term). HEK-293T cells were then co-transfected (JetPei, Polyplus) by each pair of plasmid encoding interacting proteins. Controls are GST alone against 3xFLAG-tagged preys. Two days after transfection, cells were harvested and lysed (0.5% NP-40, 20 mM Tris-HCl (pH 8.0), 180 mM NaCl, 1 mM EDTA, and complete protease inhibitor cocktail). Cell lysates were cleared by centrifugation for 20 min at 13,000 rpm at 4° C. and soluble protein complexes were purified using Glutathione Sepharose 4B beads (GE Healthcare). Beads were then washed extensively four times with lysis buffer and proteins were separated on SDS-PAGE and transferred to nitrocellulose membrane. GST-tagged viral proteins and 3xFLAG-tagged cellular proteins were detected using standard immunoblotting techniques using anti-GST (Covance) and anti-FLAG M2 (Sigma) monoclonal antibodies (21).

HCV proteins = target: T3, HCV proteins (Hepatitis C virus genotype 1b, UniProt Q9WMX2); test: Validation by Y2H pairwise matrices; format: binding;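 further: yeast two-hybrid pairwise tests of interactions first found in Y2H screens of HCV bait proteins against human cDNA libraries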
T3 construct: expressed in transfected cells

HCV RNA replication = HCV RNA replication under bile acids / FXR ligands; format: cell-based, Hepatitis C virus
[4] = interaction with HCV protein NS5A
[5] = validation of interaction with HCV protein NS3
[6] = validation of interaction with HCV protein CORE
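Wherever IMAP Y2H IMAP1 (number of IST) is given: yeast two-hybrid screens using HCV genotype 1b proteins fused to Gal4-DB as baits against prey cDNA libraries from human spleen and foetal brain, IMAP1 via transformation and IMAP2 via mating.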
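Wherever IMAP Y2H IMAP2 (number of IST) is given: yeast two-hybrid screens using HCV genotype 1b proteins fused to Gal4-DB as baits against prey cDNA libraries from human spleen and foetal brain, IMAP1 via transformation and IMAP2 via mating.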
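Wherever Interaction with viral protein is given: yeast two-hybrid screens using HCV genotype 1b proteins fused to Gal4-DB as baits against prey cDNA libraries from human spleen and foetal brain, IMAP1 via transformation and IMAP2 via mating.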

Row | Compound | Interaction with viral protein [2] | IMAP Y2H IMAP1 (number of IST) ([1]; HCV protein NS3 as bait) | Y2H matrices (HCV proteins; [5]) | other results
1 | PPP1R13L | NS5A |  |  | IMAP Y2H IMAP2 (number of IST) ([1]; HCV protein NS5A as bait): 2; CoAP [3, 4]: +
2 | KPNA1 | NS3 |  |  | IMAP Y2H IMAP2 (number of IST) ([1]; HCV protein NS3 as bait): 8; CoAP [3, 5]: +
3 | CALCOCO2 | NS3 | 5 | + | IMAP Y2H IMAP2 (number of IST) ([1]; HCV protein NS3 as bait): 2; CoAP [3, 5]: +
4 | TGFB1I1 | NS3 | 1 | + | 
5 | TRIM27 | NS3 and NS2 | 1 | + | IMAP Y2H IMAP2 (number of IST) ([1]; HCV protein NS2 as bait): 1
6 | RNF31 | NS3 and CORE | 1 | + | IMAP Y2H IMAP1 (number of IST) ([1]; HCV protein CORE as bait): 1; Y2H matrices (HCV proteins; [6]): +
7 | RINT1 | NS3 | 1 | + | 
8 | CEP192 | NS3 | 1 | + | 
9 | ZNF646 |  |  |  | IMAP Y2H IMAP2 (number of IST) ([1]; HCV protein NS5A as bait): 2; CoAP [3, 4]: −
10 | LTBP4 | NS3 and CORE | 2 | + | IMAP Y2H IMAP1 (number of IST) ([1]; HCV protein CORE as bait): 4; Y2H matrices (HCV proteins; [6]): +
11 | FBN3 | NS3 | 2 | + | 
12 | AGRN | CORE |  |  | IMAP Y2H IMAP1 (number of IST) ([1]; HCV protein CORE as bait): 1; Y2H matrices (HCV proteins; [6]): +
13 | SBF1 | NS3 | 1 | + | 
14 | CELSR2 | NS3 | 1 | + | 
15 | SMURF2 | NS3 and NS2 |  |  | IMAP Y2H IMAP2 (number of IST) ([1]; HCV protein NS3 as bait): 4; CoAP [3, 5]: +
16 | RGNEF | NS3 | 1 | + | 
17 | deoxycholate |  |  |  | up-regulation of HCV RNA replication (HCV RNA replication): more than tenfold

Row | Compound | Interaction with viral protein [2] | IMAP Y2H IMAP1 (number of IST) ([1]; HCV protein NS3 as bait) | Y2H matrices (HCV proteins; [5]) | other results
18 | TRIP11 | NS3 | 1 | + | 
19 | CFP | NS3 | 4 | + | 
20 | VIM | NS3 | 32 | + | 
21 | COL4A2 | CORE |  |  | IMAP Y2H IMAP1 (number of IST) ([1]; HCV protein CORE as bait): 1; Y2H matrices (HCV proteins; [6]): +
22 | JAG2 | NS3 | 1 | + | 
23 | NCAN | NS3 | 1 | + | 
24 | KHDRBS1 | NS3 | 4 | + | 
25 | LAMA5 | NS3 | 1 | + | 
26 | GAA | NS3 | 2 | + | 
27 | MEGF8 | NS3 | 2 | + | 
28 | LAMC3 | NS3 | 1 | + | 
29 | C/C=C1\C(=O)C[C@H]2[C@@H]3CCC4=CC(=O)CC[C@]4(C)[C@H]3CC[C@]12C [guggulsterone] |  |  |  | effect on the up-regulation of HCV replication induced by BAs (HCV RNA replication; FXR antagonism, in presence of BAs): blocked the up-regulation induced by BAs; inhibition of basal level of HCV replication (HCV RNA replication; guggulsterone alone): tenfold
30 | ACTN2 | NS3 | 10 | + | IMAP Y2H IMAP2 (number of IST) ([1]; HCV protein NS3 as bait): 6; CoAP [3, 5]: −
31 | STAB1 | NS3 | 4 | + | 
32 | MVP | NS3 | 1 | + | 
33 | ARNT | NS3 | 1 | + | 
